{"source": "paper PMC2172679", "biological_target": "p150^Glued subunit of dynactin (endogenous in melanophore extracts) (Xenopus laevis (endogenous in melanophores)) (UniProt Q6PCJ1)", "sequence (Q6PCJ1 whole entry)": "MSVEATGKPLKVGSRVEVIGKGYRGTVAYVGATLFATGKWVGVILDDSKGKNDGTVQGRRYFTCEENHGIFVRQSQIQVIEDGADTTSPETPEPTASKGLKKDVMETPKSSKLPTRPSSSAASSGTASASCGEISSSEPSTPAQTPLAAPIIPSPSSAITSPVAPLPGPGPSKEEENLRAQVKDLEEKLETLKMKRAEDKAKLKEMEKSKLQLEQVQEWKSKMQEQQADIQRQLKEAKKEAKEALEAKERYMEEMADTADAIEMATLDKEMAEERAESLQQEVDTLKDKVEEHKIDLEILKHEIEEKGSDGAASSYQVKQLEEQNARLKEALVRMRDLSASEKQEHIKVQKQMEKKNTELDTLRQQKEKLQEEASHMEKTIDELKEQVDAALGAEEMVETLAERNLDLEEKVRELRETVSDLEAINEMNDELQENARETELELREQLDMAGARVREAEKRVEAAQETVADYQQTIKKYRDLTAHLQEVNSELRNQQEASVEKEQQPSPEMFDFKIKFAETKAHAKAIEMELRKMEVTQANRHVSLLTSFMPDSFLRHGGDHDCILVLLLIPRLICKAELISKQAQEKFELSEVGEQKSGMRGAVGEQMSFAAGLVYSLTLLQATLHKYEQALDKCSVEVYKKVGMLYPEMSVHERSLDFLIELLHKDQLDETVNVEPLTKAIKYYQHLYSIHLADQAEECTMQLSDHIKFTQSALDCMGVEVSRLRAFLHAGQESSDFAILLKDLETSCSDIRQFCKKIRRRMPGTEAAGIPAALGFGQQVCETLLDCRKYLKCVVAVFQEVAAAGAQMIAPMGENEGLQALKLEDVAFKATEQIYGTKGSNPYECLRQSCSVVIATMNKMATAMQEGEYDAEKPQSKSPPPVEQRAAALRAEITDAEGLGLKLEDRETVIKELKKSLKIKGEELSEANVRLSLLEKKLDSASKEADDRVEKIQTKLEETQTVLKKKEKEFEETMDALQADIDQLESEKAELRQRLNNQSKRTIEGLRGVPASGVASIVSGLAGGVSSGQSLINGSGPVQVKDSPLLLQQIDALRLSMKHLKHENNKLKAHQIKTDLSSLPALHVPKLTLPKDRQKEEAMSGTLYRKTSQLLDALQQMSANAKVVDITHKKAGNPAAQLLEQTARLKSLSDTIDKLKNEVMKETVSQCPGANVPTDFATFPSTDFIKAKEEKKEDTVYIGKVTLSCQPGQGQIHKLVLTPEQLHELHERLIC", "assay": "co-IP", "data": [{"substance": "kinesin II (Xenopus, endogenous in melanophore extracts) (complex)", "values": [{"measurement": "percent of the total pool co-precipitated", "value": 1, "unit": "%"}]}]}
